Source: PMC9063841, “Structural insights into choline-O-sulfatase reveal the molecular determinants for ligand binding” (Acta Crystallographica. Section D, Structural Biology, 2022)

How the values were obtained:
SmeCOSe = molecular target: T1, SmeCOSe (Sinorhizobium meliloti, UniProt O69787); assay: absorbance at […] nm (p-nitrophenol release); assay type: biochemical; details: pH 7.0
T1 construct: gene betC; full length, C-terminal His6 (pET-21b(+), plasmid pSERQF5), E. coli BL21(DE3); homotetramer, about 201 kDa; Cys54 is formylglycine in wild type; natural difference at residue 105 (printed F105L against strain GR4 CP003933.2, but L105F)

[1] = molecular target: wild-type Sinorhizobium (Ensifer) meliloti choline-O-sulfatase (Sinorhizobium (Ensifer) meliloti CECT4857) (UniProt O69787); assay: SEC; 100 ul samples of SmeCOSe (0.1-1 mg/ml, three concentrations) on a Tricorn Superdex 200 column, 20 mM Tris-HCl pH 8.0; mass estimated against standards
[2] = molecular target: wild-type Sinorhizobium (Ensifer) meliloti choline-O-sulfatase (Sinorhizobium (Ensifer) meliloti CECT4857) (UniProt O69787); assay: dynamic light scattering; 20 uM (in protomer units), 20 mM Tris-HCl pH 8.0, 20 C; mass from the hydrodynamic radius assuming a spherical shape

Km (SmeCOSe) | stoichiometry N [1] | stoichiometry N [2] | Molecule
45.7 ± 12.5 mM | – | – | O=[N+]([O-])c1ccc(OS(=O)(=O)O)cc1 [pNPS]
– | 4 | 4 | wild-type Sinorhizobium (Ensifer) meliloti choline-O-sulfatase (from UniProt O69787 2-512) (enzyme)
